Reference: PMC10184575, “Development of an Anti-canine PD-L1 Antibody and Caninized PD-L1 Mouse Model as Translational Research Tools for the Study of Immunotherapy in Humans” (Cancer Research Communications, 2023)

Target: T1, 6X His-tagged extracellular domain of canine PD-L1 (canine, UniProt E2RKZ5)
T1 construct: canine PD-L1 (CD274), extracellular domain; also called cPD-L1-His; His-tagged cPD-L1 protein; source: ExpiCHO cell system, purified (Ni-NTA agarose)
Assay: BLI; Octet RED384; His-tagged cPD-L1 loaded on NTA biosensor at 200 nmol/L; 12C10E4 antibody at 50, 100, 200 nmol/L in kinetic buffer
Conditions: both partners purified

T1 sequence (E2RKZ5 entry or part of it): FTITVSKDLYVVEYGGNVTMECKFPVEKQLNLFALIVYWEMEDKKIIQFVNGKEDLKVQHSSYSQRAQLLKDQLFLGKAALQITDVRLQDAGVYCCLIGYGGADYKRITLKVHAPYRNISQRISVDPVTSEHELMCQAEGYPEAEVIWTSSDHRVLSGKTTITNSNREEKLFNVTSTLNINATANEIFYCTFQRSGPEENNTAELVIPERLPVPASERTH

B1: 12C10E4 chimeric antibody (12C10E4-cIgG; murine variable regions, canine IgG2 and canine kappa constant regions) (antibody, V domains shown)
VH: QVQLKQSGPGLVQPSQSLSITCTISGFSLTSFGVHWVRQSPGKGLEWLGVIWSGGSTDYNAAFTSRLSINKDNSKSQVFFKMNSLQADDTAIYYCARGGGPDWYFDVWGTGTTVTVSS
VL: DIVLTQSPASLAVSLGQRATISCRASESVEYYGTSLMQWYQQKPGQPPKLLIFAASNVKSGVPARFSGSGSGTDFSLNIHPVEEDDIAMYFCQQSGKVPHTFGGGTKLEIK
notes: VH of the mouse hybridoma 12C10E4; canine IgG2 heavy constant chain (called equivalent to human IgG1); VL of the mouse hybridoma 12C10E4; canine kappa light constant chain; also called 12C chimeric antibody; 12C cPD-L1 chimera antibody; source: ExpiCHO-S, transfected, purified (protein A agarose)
Kd: 8.6 nM
